The record followed here is US5969101.

In assay [1] the target is c-Abl wild type, full length.

“HA-tagged Abi-2Δ1-100 (pCGN/abi-2Δ1-100)” came in with a relative transforming activity, colonies in soft agar of Rat1/P185 BCR-Abl cells with P185 BCR-Abl of 70%. Take “HA-tagged Abi-2Δ1-157 (pCGN/abi-2Δ1-157)”: the No. of Agar Colonies (per 10^4 cells) (agar colonies per 10^4 cells) in the assay with c-Abl K290R was found to be 3; in assay [1] it was 563.
